# Test results published in article PMC4722456.
# Molecular target: actin from chicken skeletal muscle (filamentous) (chicken) (UniProt P68139)
row,Km for actin of the actin-activated Mg2+-ATPase (Michaelis-Menten fit),Substance
1,4.99 µM,"Drosophila melanogaster indirect flight muscle myosin subfragment 1, converter mutant R759E (domain or fragment)"
2,3.58 µM,"Drosophila melanogaster indirect flight muscle myosin subfragment 1, double mutant R759E/N509K (domain or fragment)"
3,5.77 µM,"Drosophila melanogaster indirect flight muscle myosin subfragment 1, wild type (domain or fragment)"
